The values below come from publication PMC3477164, “Improved eIF4E Binding Peptides by Phage Display Guided Design: Plasticity of Interacting Surfaces Yield Collective Effects” (PLoS ONE, 2012).

Ends that are not written are not given here.

A short description of data set [1]: Solubility of the peptide as observed on handling. In kind it is physicochemical. The settings on record: qualitative observation.
For data set [2], the target named is T1, eIF4E (Homo sapiens, UniProt P06730).
T1 construct: Full-length human eIF4E was expressed and purified as described previously; made in house
As to the kind of experiment: Fluorescence based thermal shift (thermal stability) assay, Sypro Red. Format: binding. The note with it: shift of eIF4E Tm, 10 µM eIF4E, 100 µM peptide, PBS, 20 to 90°C at 1°C/min, Ex/Em 533/640 nm. The protocol: A fluorescence based thermal shift assay was used to screen and rank the rationally designed eIF4E binding derivative peptides. The fluorescent dye Sypro Red (Invitrogen) was used to monitor thermal denaturation of eIF4E. Binding of the dye molecule to eIF4E, as it unfolds due to thermal denaturation, results in a sharp increase in the fluorescence intensity. The midpoint of this transition is termed the Tm. The thermal shift assay was conducted in a LightCycler (Roche). Protein samples studied were made up to a total volume of 50 µl in PBS (Phosphate Buffered Saline) with Sypro Red, (Invitrogen, 5000× DMSO stock) at a 3.125× concentration. The final protein concentration was 10 µM. Protein samples were incubated with derivative peptides at a concentration of 100 µM. […] The fluorescence intensity was measured with Ex/Em:533/640 nm.
The fluorescence data against temperature derived from the LightCycler were fitted to Eq. (1) to obtain ΔHu, ΔCpu, and Tm by nonlinear regression using the program Prism 4.0, Graphpad: [drawing 1] (1) where Ft is the fluorescence intensity at temperature T; Tm is the midpoint temperature of the protein-unfolding transition, Fpre and Fpost are the pretransitional and posttransitional fluorescence intensities, respectively, R is the gas constant, ΔHu is the enthalpy of protein unfolding, and ΔCpu is the heat capacity change on protein unfolding. […]

The target of data set [3] is T2, Eukaryotic initiation factor 4E (eIF4E), full-length human (human, UniProt P06730 1-217).
T2 construct: eIF4E, human, full length
As to the kind of experiment: fluorescence based thermal shift assay; 10 uM eIF4E with 100 uM peptide in PBS, Sypro Red, heated from 20 to 90 °C at 1 °C/min; Kd estimated from the Tm shift (enthalpy of binding taken to be -5 kcal/mol). The settings on record: both partners purified.

Data set [4] addresses T2, Eukaryotic initiation factor 4E …. As to the kind of experiment: SPR; eIF4E amine coupled to a CM5 chip (about 1000 RU, m7GTP present at immobilisation), peptides injected; 10 mM Hepes pH 7.6, 0.15 M NaCl, 1 mM DTT, 0.1% Tween20, 3% DMSO; Biacore T100; Kd from the equilibrium responses (Keq), 1:1 model, three titrations. The note with it: both partners purified.
For data set [5] the target is unchanged. As to the kind of experiment: SPR; eIF4E amine coupled to a CM5 chip (about 1000 RU, m7GTP present at immobilisation), peptides injected; 10 mM Hepes pH 7.6, 0.15 M NaCl, 1 mM DTT, 0.1% Tween20, 3% DMSO; Biacore T100; Kd from the association and dissociation phases (Kkin), 1:1 model, three titrations. The settings on record: both partners purified.
For data set [6] the target is unchanged. As to the kind of experiment: SPR; eIF4E amine coupled to a CM5 chip (about 1000 RU, m7GTP present at immobilisation), peptides injected; 10 mM Hepes pH 7.6, 0.15 M NaCl, 1 mM DTT, 0.1% Tween20, 3% DMSO; Biacore T100; Kd from the equilibrium responses (Keq), 1:1 model, three titrations. The note with it: both partners purified. This is another data set of the same source.

For data set [7] the target is unchanged. As to the kind of experiment: SPR; eIF4E amine coupled to a CM5 chip (about 1000 RU, m7GTP present at immobilisation), peptides injected; 10 mM Hepes pH 7.6, 0.15 M NaCl, 1 mM DTT, 0.1% Tween20, 3% DMSO; Biacore T100; Kd from the association and dissociation phases (Kkin), 1:1 model, three titrations. The settings on record: both partners purified. This is another data set of the same source.

Data set [8] shares this target. As to the kind of experiment: SPR; eIF4E amine coupled to a CM5 chip (about 1000 RU, m7GTP present at immobilisation), peptides injected; 10 mM Hepes pH 7.6, 0.15 M NaCl, 1 mM DTT, 0.1% Tween20, 3% DMSO; Biacore T100; Kd from the equilibrium responses (Keq), 1:1 model, three titrations. The settings on record: both partners purified. This is another data set of the same source.

For data set [9] the target is unchanged. The data set is described as follows: SPR; eIF4E amine coupled to a CM5 chip (about 1000 RU, m7GTP present at immobilisation), peptides injected; 10 mM Hepes pH 7.6, 0.15 M NaCl, 1 mM DTT, 0.1% Tween20, 3% DMSO; Biacore T100; Kd from the association and dissociation phases (Kkin), 1:1 model, three titrations. The note with it: both partners purified. This is another data set of the same source.

T2 sequence (P06730 whole entry): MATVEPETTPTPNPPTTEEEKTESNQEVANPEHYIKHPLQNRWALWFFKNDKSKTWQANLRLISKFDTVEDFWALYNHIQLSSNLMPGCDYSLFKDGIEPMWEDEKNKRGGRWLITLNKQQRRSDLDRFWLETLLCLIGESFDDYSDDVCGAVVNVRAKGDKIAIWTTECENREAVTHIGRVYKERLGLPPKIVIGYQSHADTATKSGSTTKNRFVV
T1 sequence (P06730 whole entry): as above

For KKRYSRDQLVAL [PHAGESOL], in [1], the “solubility of the peptide (in words)” value is given as “soluble”.

For “SLHYSRDQLVAL [PHAGE, phage display selected 12mer […]]”, the “Thermal Shift (Tm, °C)” value in data set [2] is “no observable shift”. Also, in data set [1], the “solubility of the peptide (in words)” value is recorded as “insoluble”.

B1: eIF4G1 wild type peptide (peptide)
peptide: KKRYDREFLLGF
notes: also called eIF4G1-WT; eIF4G1 peptide; source: synthetic peptide (Mimotopes), HPLC purified to >90%
Consider B1, for which the Kd was 460 nM in [3], 580 ± 16.7 nM in data set [4] and 524 ± 61.6 nM in [5]. The “thermal shift (Tm)” value in data set [3] was 7.03 ± 0.1 °C.

B2: eIF4G1-F12L peptide (peptide)
peptide: KKRYDREFLLGL
notes: eIF4G1 peptide with F12L; also called F12L mutant peptide; source: synthetic peptide (Mimotopes), HPLC purified to >90%
As to B2, the results for the Kd in data set [3], in data set [4] and in data set [5] were 520 nM, 761 ± 63.8 nM and 718 ± 98 nM, respectively. For the same molecule, the “thermal shift (Tm)” value in data set [3] was 6.87 ± 0.12 °C.

B3: PHAGESOL-Q8F/L12F peptide (peptide)
peptide: KKRYSRDFLVAF
notes: PHAGESOL with Q8F and L12F; source: synthetic peptide (Mimotopes), HPLC purified to >90%
Regarding B3, the values for the Kd in data set [6] and in data set [7] were 348 ± 20.9 nM and 374 ± 33.1 nM, respectively.

B4: eIF4G1-D5C peptide (peptide)
peptide: KKRYCREFLLGF
notes: eIF4G1 peptide with D5C; source: synthetic peptide (Mimotopes), HPLC purified to >90%
As to B4, the figures for the Kd in [8] and in [9] were 436 ± 6.4 nM and 458 ± 19.8 nM, respectively.

B5: eIF4G1-D5E peptide (peptide)
peptide: KKRYEREFLLGF
notes: eIF4G1 peptide with D5E; also called eIF4G-D5E; source: synthetic peptide (Mimotopes), HPLC purified to >90%
For the molecule B5, the Kd in data set [8] turned out to be 749 ± 57.7 nM; in data set [9], 692 ± 31.2 nM.

B6: eIF4G1-D5T peptide (peptide)
peptide: KKRYTREFLLGF
notes: eIF4G1 peptide with D5T; source: synthetic peptide (Mimotopes), HPLC purified to >90%
For B6, the dissociation constant (Kd) in data set [8] amounted to 110 ± 1.8 nM; in data set [9], 105 ± 7.2 nM.

B7: eIF4G1-L10V peptide (peptide)
peptide: KKRYDREFLVGF
notes: eIF4G1 peptide with L10V; source: synthetic peptide (Mimotopes), HPLC purified to >90%
On to B7, for which the Kd was 4400 nM in data set [3], 4540 ± 622 nM in [4] and 2680 ± 444 nM in [5]. Also, the “thermal shift (Tm)” value in [3] was 3.9 ± 0.03 °C.

B8: VL-PHAGESOL-L12F peptide (peptide)
peptide: KKRYSRDQLLAF
notes: PHAGESOL with V10L and L12F; source: synthetic peptide (Mimotopes), HPLC purified to >90%
As for B8, the Kd in data set [6] is 43.21 ± 0.34 nM; in data set [7] it was 40.7 ± 3.8 nM.

B9: eIF4G1-D5S peptide (peptide)
peptide: KKRYSREFLLGF
notes: eIF4G1 peptide with D5S; also called eIF4G-D5S; source: synthetic peptide (Mimotopes), HPLC purified to >90%
Regarding B9, the Kd in data set [3] is 100 nM; in data set [4] it was 103 ± 2.3 nM; in [5] it was 99.9 ± 6.2 nM. Besides, the “thermal shift (Tm)” value in [3] was 8.97 ± 0.07 °C.

B10: PHAGESOL peptide (peptide)
peptide: KKRYSRDQLVAL
notes: phage display selected 12-mer … with its N-terminal SLH changed to KKR of the eIF4G1 peptide; source: synthetic peptide (Mimotopes), HPLC purified to >90%
Take B10: the Kd in [3] is 77 nM; in data set [4], 76.7 ± 3.4 nM; in [5], 77.1 ± 9 nM. Also, the “thermal shift (Tm)” value in [3] is 9.83 ± 0.1 °C.

B11: eIF4G1-G11A peptide (peptide)
peptide: KKRYDREFLLAF
notes: eIF4G1 peptide with G11A; source: synthetic peptide (Mimotopes), HPLC purified to >90%
B11: the Kd was 200 nM in data set [3], 309 ± 11.6 nM in data set [4] and 282 ± 17.6 nM in [5]. Also, the “thermal shift (Tm)” value in [3] is 8.13 ± 0.12 °C.

B12: eIF4G1-QL peptide (peptide)
peptide: KKRYDREQLLGL
notes: eIF4G1 peptide with F8Q and F12L; also called eIF4G1_F8Q/F12L; source: synthetic peptide (Mimotopes), HPLC purified to >90%
As for B12, the Kd was 1090 ± 49.9 nM in data set [6] and 1090 ± 106 nM in data set [7].

B13: PHAGESOL-D7E peptide (peptide)
peptide: KKRYSREQLVAL
notes: PHAGESOL with D7E; source: synthetic peptide (Mimotopes), HPLC purified to >90%
B13: the Kd in [6] is 51.6 ± 1.8 nM; in data set [7] it was 52.9 ± 2.1 nM.

B14: eIF4G1-E7D peptide (peptide)
peptide: KKRYDRDFLLGF
notes: eIF4G1 peptide with E7D; also called E7D mutant peptide; source: synthetic peptide (Mimotopes), HPLC purified to >90%
Turning to B14, the Kd in data set [3] was 520 nM; in [4] it was 784 ± 21.5 nM; in data set [5], 759 ± 70.7 nM. The “thermal shift (Tm)” value in [3] is 6.87 ± 0.18 °C.

B15: PHAGESOL-Q8F peptide (peptide)
peptide: KKRYSRDFLVAL
notes: PHAGESOL with Q8F; source: synthetic peptide (Mimotopes), HPLC purified to >90%
Regarding B15, the Kd in data set [6] worked out at 196 ± 6.3 nM; in data set [7], 184 ± 15.4 nM.

B16: eIF4G1-D5P peptide (peptide)
peptide: KKRYPREFLLGF
notes: eIF4G1 peptide with D5P; source: synthetic peptide (Mimotopes), HPLC purified to >90%
Consider B16, for which the figures for the Kd in [8] and in data set [9] were 684 ± 13.6 nM and 717 ± 31.2 nM, respectively.

B17: eIF4G1-D5N peptide (peptide)
peptide: KKRYNREFLLGF
notes: eIF4G1 peptide with D5N; source: synthetic peptide (Mimotopes), HPLC purified to >90%
On to B17, for which the Kd stood at 444.5 ± 1.6 nM in data set [8] and 388.9 ± 1.6 nM in data set [9].

B18: eIF4G1-F8Q peptide (peptide)
peptide: KKRYDREQLLGF
notes: eIF4G1 peptide with F8Q; also called eIF4G-F/Q; source: synthetic peptide (Mimotopes), HPLC purified to >90%
As for B18, the Kd in data set [3] is 2000 nM; in [4], 1630 ± 75.1 nM; in data set [5], 1780 ± 406 nM. For the same molecule, in data set [3], the “thermal shift (Tm)” value is 5 ± 0.03 °C.

B19: VL-PHAGESOL-Q8F/L12F peptide (peptide)
peptide: KKRYSRDFLLAF
notes: PHAGESOL with V10L, Q8F and L12F; source: synthetic peptide (Mimotopes), HPLC purified to >90%
B19: the Kd in data set [6] worked out at 69.9 ± 6.4 nM; in data set [7] it was 62 ± 3.5 nM.

B20: VL-PHAGESOL-Q8F peptide (peptide)
peptide: KKRYSRDFLLAL
notes: PHAGESOL with V10L and Q8F; source: synthetic peptide (Mimotopes), HPLC purified to >90%
Consider B20, for which the Kd came out at 49.6 ± 4.3 nM in data set [6] and 47.1 ± 1.5 nM in data set [7].

B21: VL-PHAGESOL peptide (peptide)
peptide: KKRYSRDQLLAL
notes: PHAGESOL with V10L; also called PHAGESOL V10L; source: synthetic peptide (Mimotopes), HPLC purified to >90%
On to B21, for which the Kd in [6] is 37.2 ± 1.6 nM; in [7] it was 34.7 ± 1.2 nM.

B22: eIF4G1-OPT peptide (peptide)
peptide: KKRYSREFLLAF
notes: eIF4G1 peptide with D5 changed to S and G11 changed to A; source: synthetic peptide (Mimotopes), HPLC purified to >90%
As for B22, the Kd in data set [6] amounted to 52.2 ± 1.4 nM; in data set [7], 59.4 ± 2.9 nM.

B23: eIF4G1-D5G peptide (peptide)
peptide: KKRYGREFLLGF
notes: eIF4G1 peptide with D5G; source: synthetic peptide (Mimotopes), HPLC purified to >90%
Take B23: the Kd was 468 ± 28.1 nM in data set [8] and 440 ± 26 nM in data set [9].

B24: PHAGESOL-L12F peptide (peptide)
peptide: KKRYSRDQLVAF
notes: PHAGESOL with L12F; source: synthetic peptide (Mimotopes), HPLC purified to >90%
On to B24, for which the Kd is 112 ± 2.7 nM in data set [6] and 120 ± 5.3 nM in data set [7].
